# From the supplement of paper PMC12636428
# Tested on: Saccharomyces cerevisiae
# Assay: transcriptional activation domain activity (GFP:mCherry ratio, weighted mean of sorted bins, harmonized to initial dataset scale) (arbitrary fluorescence ratio units); higher = stronger transcriptional activation
# Details: beta-estradiol 1 µM; induction time 4 h
# Protocol: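 53-aa protein tiles (fungal proteins plus yeast TF control tiles) fused C-terminally to a DBD-estrogen-binding domain-mCherry synthetic TF, integrated in S. cerevisiae (URA3 locus) with a GFP reporter. Cells were induced with 1 uM beta-estradiol for 4 h at 30 C, FACS-sorted into 8 bins by GFP:mCherry ratio and barcodes sequenced. Activity is the read-weighted mean bin fluorescence (GFP:mCherry), averaged over barcodes (median 12); tiles under 50 reads were discarded. New active-learning values were harmonized by linear fit onto the scale of the initial (Hummel et al.) dataset. The assay saturates at low and high signal.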
row,Sequence,transcriptional activation domain activity
1,ASASASASRHKKDKDRKKKHKEKDGKSSKHKKHKSSSRRSRSRSRDKDRHGDR,33300
2,ASASPARAPAAEVPPPVEIHVGDRCEVDRATGVARGTVRFVGEAEMPPPRPGA,42400
3,ASASREKGKGKGREEEKKEGESKGKEKGRKEEEKGGEEKGGEEEDDEDEDEDE,30900
4,ASDKQETSSQPEGGKEKEAAKEEKKPEPKKEEPKQESKPAPAPKQEKKPEPKK,32600
5,ASDSAPEPVKKKRGRPPKAQSDSEVVEKRPKKKPGPKPKPKAKAARKRKAPVS,18900
6,ASDYAIGQFRYLKRLILVHGEWSYARNANMIVNFFYKNILGIGVLWWFQIYCG,39100
7,ASEAAVKEESASPAAKKSKKDKKPAKGSSDSVEAPVAEATPKTKKTAKANGAV,28000
8,ASEAPKEEPKTESAPEPKQESAPESKKEAPAPAASKPEPPKQVEKKKESSSAP,34300
9,ASEKKEASQRPPPAVEKKTVPKPSSKPENRPGPSKPVVPKADSKKEAPKPAPS,9920
10,ASENSESSDSSDDEADVPSRKGNAASAVNTMADDDDDEEGGGGATTAAAARTK,16900
11,ASEPVKEETKPPVEEHASEPVEEETKPVEEEIKPVEEHASEPVKEETKPAEEH,< 6570
12,ASFLVLRDIRLLDCFSVLASCGYVSLFPLIYTCDEWLIKVVYTLLWYIIYYFS,84300
13,ASGAAAPSGTPSLFGAKPAGTTAAPATSTPAGGLFGAASSAAPAASATTPTTG,47400
14,ASGAGAVKKAPKSPKAVATAKVGAKAAKPKAGAKATKPKAAKPKAAKAAAAGA,20900
15,ASGAKTVVKKEPASATPEPAPKQAEVKKPAAAEAAPVPAAKAAPALASAAAAA,43400
16,ASGSGSGSKSGGGGARQGGGGAAGAAGGKGGGAAGGSKGGGGAWGKMKAAASD,18700
17,ASIISQRSGIVRALSRLMIFDRKLRVKDTHLRRLQHRIVIQSLVFGAFFSCVG,54700
18,ASIPDPAADDDDAEFGGTGEKKPRKRAPKAASGESKNGKAKAVKTEGGASAAG,33300
19,ASIPEPTANLFLDSINTFGSIDIFDSDLDLNNTLQWADLFDLNFDNIMMTPQF,123000
20,ASKEGEREKEGGREKEGNEGKKEGDKEEGEKKEGTDKEEEEKGGEKGKGSGEE,47900
21,ASKRKRTEGESKKKEAKRERPKKKSRRDDDDDASGGDELEGKRSRKPKRASAS,18500
22,ASLEGGGGVVDISGETSSYVWRVLVYLAFINPFFCFLCALYAILILLAVLVTY,29300
23,ASLHCLRSSPSSSSPCAARERSSSRARTSSSMCPIAPTHKPRSSTGSPARGTP,19900
24,ASNAPGTGASRSAAAAATAAISRAKGAAQQQQAQKKPDASSSRPAGKQPAVKE,26900
25,ASNTTEVQLFINGSYVLLDTVCTRVLLYPDQILSNFRREDIALLCLQFWLFFI,28700
26,ASPDADGNGEVKKKYDPKDPMRPRRKKARRACYACQRAHLTCGDERPCQRCIK,43400
27,ASQFPWAQIEITWRCLTYLCFDSFLELPQYWMLRQKFLVEHALLAYAARYCLV,54100

row,Sequence,transcriptional activation domain activity
1,ASSAPAAASSAPDAASSAPAAASSAPAAASSAPPAAASPAASPAAGGFQLQNG,38200
2,ASSASTGKGEEEEEDGEEKVRGKGKGQGQGQSQGQGQGQGQEAQERRDDEASA,31700
3,ASSSAPAAEPEAAAEEAPKKEEAAPAKEEPAAATTATAAAAGESSEAPKEAAP,33900
4,ASSSDEEEQEVDDMETDSSKKRSHDETKEEEVEEEEERPKKTVKVEKPKEKKT,29200
5,ASSSTPGAHQPTRRSAGAHRSEEHSVVLHLPPGTHRMKFIVDDRWRVSRELPT,29000
6,ASSTAAASAASSAAAAKGGNNNAGKGAAAAKGGAAAAKGGAAAGGAAAAKGGA,24400
7,ASSVRIIAIKYFLTIHRWLPIVFKRGFFSSLLNPVAQRQTELGLLILCMKLCC,48800
8,ASSYAVQHTRKKGRGGGGGEAGNKPANKAARSWDKNAELHGTQGKMHVTIAVT,85900
9,ASTAGPAAGGSVSAAPKRRGRPPKRKAEPEQGAEAQPAKKPRGRPRKSAVVEA,12000
10,ASTETPLPVPKRRGRPPKNNNAAGIVVFDGGEEAPAVKKRGRPKKVTEPVAST,23100
11,ASTKGRADVRGRSGKAAPQKGRGKARVGSKRAPHFRGGGIAFGPRPRDFSTEL,28300
12,ASVERCHRNIVPNGCAVFQAGGLVVVLVEVSRKSYLASLVPVIVNAILNEHQI,43500
13,ASVVQWLGFHPSKVEVRVRFTAVANKRSSRTSLLLLVVWSWRRQRWMLRWSSG,49300
14,ATAAAAVKSPRSKSKEPKKSLDAAAAVAATSPAPVAAEEPAAAAVVEEPAKPA,41400
15,ATAANEEGEEGEATPKKTPRKRAAKKQDVDGDASPKKKGRGKKVSDDETNVKS,< 6570
16,ATAARRPRADEGEEGLDEATDAAAAPAAAAENGEAAAAKPKKNRKSKAAKAAA,16300
17,ATADRDGEREAQEVVATTVVHCHGLFGKTYISIIRAFHVLIVKHSLARLPKKI,60700
18,ATCPSFFRSICSTYYDNFVFVWDAVAAFLVPYQRYTYYPIMGIARFNLYLLSW,52400
19,ATDCAVKALRALQILMDHPTFPYDACLDLWHRCWPWMHFVHTFWKYLPGFVTG,57200
20,ATEKEVKPKKAAAPKKAAAPKEKKEKVEKAEKAPKPKANAAKKVKKTASAPAV,20200
21,ATGAGSDANAGEDETFHKSGEATLSSQHRYKDAIDFRKIVLKLTDGVRWGLGI,37200
22,ATGLAWGVWGKKGAPRFRGSCAERFDTLSSTEWKGSRLVRLVARFDNTVRSVP,45600
23,ATHPDYIDPHNAMDYLSNDGGDSYNLCHFWSNFEIADMDFWRSDAYQAFFDFL,150000
24,ATIAPPQLELVTDPQLSMDSFLEMIRVFTVPGKCFFDALAADSTDASCTEESL,95400
25,ATIIFVFTASICGYNFNFDWVFSYKLVEFENTLGWTLFCLWLFDALLCVLFMT,52700
26,ATIMYLGLCITFLPFLVIYVIYNICSAFYVVLLGLGLLVYWLTRNSRLLKWAF,45800
27,ATKTKAATTKKAAVPKKAAAKPAPKKAVAAAKPKANAGRPRKTVAAAAGPAPA,42000

row,Sequence,transcriptional activation domain activity
1,ATLHYISPYCPRFGRYHILRMLHCIGGLHVAANLWCYYWVWVYVLNEIILPQW,66400
2,ATLNLIFTIDLLNFSFWSELPEDERFCIEYRGKRWTGYWSLVAALQRALDEGV,39000
3,ATNLFFTAAIFYFIFVVFGVILVLLYKALCELLIRSKKIGSESHLFHFIHNGW,44900
4,ATPAPAPGMSAAPAPAAEPVESTPKAESKPEPKPEPKAEPKAESKPAAKPAAA,19500
5,ATSVWLRVFFIAVSSIAVIPILNFWGLCKLWGFIFFFSCGNVYVGLLFTVVLF,62300
6,ATVNLVINFTEMTNLMRALLILYRLKERVLSMAKRLELAELRKSKSINVNLTL,60400
7,ATWKLVQIGYRRDESLFLYFFYFYLFLFCFNMCGSSFYLLLLCCHIHIVAHSV,71000
8,ATWWHVFGTRVFKPVPTYVGEFQTWLQAFIHLSWDWRLSTHMWFRYNFHMWTI,68900
9,AVAAAVAAIAAVAAEIKTVPAQAQEQEQEQEQEQAQVQVQVQAQAQPQQQQQA,< 6570
10,AVAALVGVGFGLSGYFLVCNVYPILSSADSKSLCLLVLVLLALSFKVLFFNYY,48300
11,AVAPASTPVATEASPAGAPDAKGKKKEKAAAGANADAAGGKKGKGGAQAAPAT,49500
12,AVDESSSEVKPAEPKADEGKPETASEENTAEASKPEAPKAEEANAEETAPAEG,51300
13,AVEARFVTPQDPVLIQDDGSRLPPVPLEEAYKLNVLRREVIERAGSVAKAIEG,63700
14,AVGLPNPHAHTLLQSLYYLRSITFSLLRLKMEQRLSLLIPSYLTIWKLDRKAL,68400
15,AVGRGEFAQPVLVPGGGVAIVAIGRARWIRDEEKNGERRYRVGVSWSADHRVV,40100
16,AVGYIWYIPFYHYNYSILRAGMMTNFFWASLCLVYSNIRPYSEIGIVYLLLCP,69800
17,AVIRKIRLLVCLAREQALRGYALEMVIHGLKPFIVDSYCSQDTIGVVQYLLHR,46700
18,AVKAEPESTAPSLVKEENTEDTKPAPSSTAPAEPSSGGMFRKRKAPAAGAGSR,39900
19,AVKKEPTPEEDEEEEEEEPAPKPKARGGRKAKASAAVDADAAQAKPKRGRAKK,30300
20,AVLEFYEQSTRLVASDALGRHVRIELPPRLLVYVVFFSPSVAVVSRLCSLLAC,35600
21,AVLSLLCSLLNTTLKYNPASWRVPYDHVVFKDPKQILVTYCLQLLLVLILYPI,37500
22,AVLWNPCICFKSPLVFRFCLSVLLAYLSLPFIPFVFLYYCFLFFVLWFIHSSY,31700
23,AVMFGQVCVILVAFCFTNQITFVGIRHGLWRSRINTIRLYIFLLRCWQILCGL,60900
24,AVPAEGAKPEETPAAAPAETTEAAKTEESKPEAPAASEPAKTEPAAPAAAPAA,< 6570
25,AVPCVVIVRNSLLIIILLPLELPLVMYVGSSNDCRGILLFYLFWFWSLRAIAV,68600
